Blank lines part the entries; values can stand above or below the binder they belong to.
Key:
[1] = biological target: T1, rNPR1-ANP complex (rat, UniProt P01160 124-151 (human entry), limits assumed); test: ELISA, 1 µM IgG; design: unit not given here
T1 construct: rNPR1 antigen in the presence of ANP; also called rNPR1 + 100 nM ANP
T1 sequence: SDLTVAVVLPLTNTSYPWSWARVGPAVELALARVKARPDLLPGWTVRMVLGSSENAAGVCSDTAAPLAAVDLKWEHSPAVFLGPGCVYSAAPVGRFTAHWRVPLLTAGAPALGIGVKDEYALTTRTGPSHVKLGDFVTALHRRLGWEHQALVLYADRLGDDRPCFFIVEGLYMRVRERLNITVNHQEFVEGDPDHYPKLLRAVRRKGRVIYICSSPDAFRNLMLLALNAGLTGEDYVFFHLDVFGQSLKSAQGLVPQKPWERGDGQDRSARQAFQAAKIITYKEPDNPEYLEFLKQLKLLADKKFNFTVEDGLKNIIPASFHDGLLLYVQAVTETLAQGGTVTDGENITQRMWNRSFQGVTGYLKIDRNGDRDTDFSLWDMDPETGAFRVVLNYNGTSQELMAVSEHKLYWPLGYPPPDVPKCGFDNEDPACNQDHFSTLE
T1 sequence (peptide): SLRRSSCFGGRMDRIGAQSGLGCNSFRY

[2] = biological target: T2, human Natriuretic Peptide Receptor 1 (hNPR1) (human, UniProt P16066 33-473, limits assumed); test: ELISA, 1 µM IgG; design: unit not given here
T2 construct: pannings used NPR1-hFc; also called NPR1-hFc
T2 sequence: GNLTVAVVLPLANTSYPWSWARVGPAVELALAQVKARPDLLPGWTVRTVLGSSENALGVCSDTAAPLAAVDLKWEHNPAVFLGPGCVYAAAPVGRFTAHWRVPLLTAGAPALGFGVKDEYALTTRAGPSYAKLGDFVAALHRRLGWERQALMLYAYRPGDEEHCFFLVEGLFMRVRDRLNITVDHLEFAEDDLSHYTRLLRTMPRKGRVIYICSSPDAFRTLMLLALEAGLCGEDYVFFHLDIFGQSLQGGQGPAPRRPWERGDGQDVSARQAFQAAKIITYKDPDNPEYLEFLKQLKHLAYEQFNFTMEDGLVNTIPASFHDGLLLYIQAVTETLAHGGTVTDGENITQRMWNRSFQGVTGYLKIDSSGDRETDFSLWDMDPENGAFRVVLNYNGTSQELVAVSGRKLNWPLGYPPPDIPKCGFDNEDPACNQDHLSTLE

[3] = biological target: T3, hNPR1-ANP complex (human, UniProt P01160 124-151, limits assumed); test: ELISA, 1 µM IgG; design: unit not given here
T3 construct: hNPR1 antigen in the presence of ANP; also called hNPR1 + 100 nM ANP
T3 sequence: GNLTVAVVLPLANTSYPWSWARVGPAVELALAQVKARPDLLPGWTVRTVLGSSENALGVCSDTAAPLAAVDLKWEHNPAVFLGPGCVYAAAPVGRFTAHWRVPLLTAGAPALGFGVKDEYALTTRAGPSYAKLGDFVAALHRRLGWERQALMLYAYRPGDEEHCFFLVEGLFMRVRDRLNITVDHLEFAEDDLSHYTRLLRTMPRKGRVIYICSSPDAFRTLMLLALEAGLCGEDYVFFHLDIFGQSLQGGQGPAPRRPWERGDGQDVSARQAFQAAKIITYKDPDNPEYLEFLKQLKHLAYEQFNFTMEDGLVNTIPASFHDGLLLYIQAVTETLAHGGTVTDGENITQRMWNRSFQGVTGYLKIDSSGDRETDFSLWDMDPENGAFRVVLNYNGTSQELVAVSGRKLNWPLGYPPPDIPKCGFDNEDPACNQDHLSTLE
T3 sequence (peptide): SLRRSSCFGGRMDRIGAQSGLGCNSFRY

[4] = biological target: T4, human NPR1 on CHO-K1 cells (human, UniProt P16066 33-1061); test: cell-based or functional assay
T4 sequence: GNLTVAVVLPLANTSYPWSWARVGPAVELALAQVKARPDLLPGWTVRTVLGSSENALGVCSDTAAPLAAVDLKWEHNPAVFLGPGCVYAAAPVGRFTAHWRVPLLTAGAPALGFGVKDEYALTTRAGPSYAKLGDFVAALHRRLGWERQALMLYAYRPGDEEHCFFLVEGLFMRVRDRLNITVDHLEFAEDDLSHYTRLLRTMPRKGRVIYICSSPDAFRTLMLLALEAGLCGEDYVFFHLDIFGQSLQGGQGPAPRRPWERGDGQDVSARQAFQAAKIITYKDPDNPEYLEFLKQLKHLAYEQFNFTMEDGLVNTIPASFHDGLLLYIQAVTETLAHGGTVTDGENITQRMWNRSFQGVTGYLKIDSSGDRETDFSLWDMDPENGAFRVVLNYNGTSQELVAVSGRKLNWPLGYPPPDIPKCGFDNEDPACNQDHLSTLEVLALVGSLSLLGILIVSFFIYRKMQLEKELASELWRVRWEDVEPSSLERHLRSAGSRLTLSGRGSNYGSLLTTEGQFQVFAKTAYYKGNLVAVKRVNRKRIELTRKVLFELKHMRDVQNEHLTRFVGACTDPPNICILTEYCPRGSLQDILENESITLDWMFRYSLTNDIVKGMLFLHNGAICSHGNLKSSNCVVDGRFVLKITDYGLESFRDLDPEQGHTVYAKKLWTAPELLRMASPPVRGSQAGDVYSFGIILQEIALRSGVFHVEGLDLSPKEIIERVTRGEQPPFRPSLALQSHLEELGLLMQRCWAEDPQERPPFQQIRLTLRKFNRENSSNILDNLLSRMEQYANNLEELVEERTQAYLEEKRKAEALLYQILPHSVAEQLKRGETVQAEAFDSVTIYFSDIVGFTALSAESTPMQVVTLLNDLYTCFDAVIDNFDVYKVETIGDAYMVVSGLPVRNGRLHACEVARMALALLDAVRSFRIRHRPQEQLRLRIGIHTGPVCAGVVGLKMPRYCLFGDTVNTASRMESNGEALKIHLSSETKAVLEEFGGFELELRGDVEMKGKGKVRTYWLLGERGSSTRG

[5] = biological target: T5, human NPR1 on CHO-K1 cells in the presence of ANP (human, UniProt P01160 124-151); test: flow cytometry, hNPR1 CHO-K1 cells, IgG
T5 construct: also called hNPR1 CHO K1 + 100 nM ANP
T5 sequence: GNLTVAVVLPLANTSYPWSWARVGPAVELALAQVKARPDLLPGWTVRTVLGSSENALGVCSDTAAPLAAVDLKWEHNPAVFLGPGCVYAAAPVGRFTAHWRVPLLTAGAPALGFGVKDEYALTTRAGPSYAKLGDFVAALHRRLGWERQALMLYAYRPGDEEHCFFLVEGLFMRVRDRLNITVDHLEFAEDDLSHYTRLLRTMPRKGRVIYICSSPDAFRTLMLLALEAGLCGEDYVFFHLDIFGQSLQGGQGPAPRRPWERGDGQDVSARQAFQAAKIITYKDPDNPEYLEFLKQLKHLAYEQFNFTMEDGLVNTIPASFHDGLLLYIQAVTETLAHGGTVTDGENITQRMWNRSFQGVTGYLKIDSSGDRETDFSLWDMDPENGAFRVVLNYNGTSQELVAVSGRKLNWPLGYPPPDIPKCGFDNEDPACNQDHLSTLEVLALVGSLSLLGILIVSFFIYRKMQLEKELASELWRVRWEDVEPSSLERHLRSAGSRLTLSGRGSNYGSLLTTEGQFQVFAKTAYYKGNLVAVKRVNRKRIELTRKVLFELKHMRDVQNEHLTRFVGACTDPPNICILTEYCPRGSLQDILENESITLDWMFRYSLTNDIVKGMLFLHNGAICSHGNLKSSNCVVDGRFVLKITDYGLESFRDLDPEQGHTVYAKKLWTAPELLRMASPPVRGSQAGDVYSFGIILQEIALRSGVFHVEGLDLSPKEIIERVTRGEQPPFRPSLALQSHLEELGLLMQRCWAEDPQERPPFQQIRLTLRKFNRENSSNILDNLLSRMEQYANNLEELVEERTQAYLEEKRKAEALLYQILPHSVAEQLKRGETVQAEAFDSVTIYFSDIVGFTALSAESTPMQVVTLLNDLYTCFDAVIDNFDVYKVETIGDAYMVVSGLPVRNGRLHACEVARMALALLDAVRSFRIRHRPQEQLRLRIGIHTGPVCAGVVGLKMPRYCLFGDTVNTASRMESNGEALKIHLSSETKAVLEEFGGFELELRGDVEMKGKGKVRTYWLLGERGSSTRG
T5 sequence (peptide): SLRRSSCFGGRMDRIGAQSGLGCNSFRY

[6] = biological target: T4, human NPR1 on CHO-K1 cells; test: flow cytometry, hNPR1 CHO-K1 cells, IgG
[7] = biological target: T5, human NPR1 on CHO-K1 cells in the …; test: flow cytometry (FL2-H) on hNPR1 CHO-K1 cells with saturating ANP, IgG titrated; control parental CHO-K1 [panel YY01]
[8] = biological target: T5, human NPR1 on CHO-K1 cells in the …; test: flow cytometry (FL2-H) on hNPR1 CHO-K1 cells with saturating ANP, IgG titrated; control parental CHO-K1 [Cont.), panel XX07]
[9] = biological target: T3, hNPR1-ANP complex; test: FRET ANP competition assay, IgG titrated on hNPR1 with Cy5-labeled ANP; negative values mean more ANP signal [Cont.), panel XX07]
Experimental: The same 31 IgGs were tested for ANP competition using a Fluorescence Resonance Energy Transfer (FRET)-based assay in which the NPR1-specific antibodies competed with ANP for binding to NPR1. In this FRET based assay (see FIG. 3), Eu-labeled Streptavidin (for measurement of IgGs) or Eu-labeled anti-hFc antibody (for measurement of FabCys) was used as an energy donor, while Cy5-labeled ANP was used as an acceptor (for all measurements). The resulting fluorescent signal was decreased by ANP-competitive antibodies. The assay was performed as follows: antibodies were mixed with NPR1 and incubated for 5 minutes at room temperature. […] After a further 60-minute incubation, readout was performed using a TECAN Infinite M1000 Pro using an excitation wavelength of 317 nm and an emission wavelength of 665 nm. Percentage of ANP competition was calculated according to the following formulae: […]
Furthermore, the clones were tested via ELISA for binding to the following antigens: human NPR1, constitutively active human NPR1 mutant (W74R), rat NPR1, human NPR3 (counter target), each in the absence and presence of ANP, and BSA. The clones were also analyzed by flow cytometry for binding to human NPR1 expressing CHO K1 cells in absence and presence of ANP (100 nM) and to parental CHO K1 cells.

[10] = biological target: T5, human NPR1 on CHO-K1 cells in the …; test: flow cytometry (FL2-H) on hNPR1 CHO-K1 cells with saturating ANP, IgG titrated; control parental CHO-K1 [Cont.), panel XX12]
[11] = biological target: T3, hNPR1-ANP complex; test: FRET ANP competition assay, IgG titrated on hNPR1 with Cy5-labeled ANP; negative values mean more ANP signal [Cont.), panel XX12]
Experimental: The same 31 IgGs were tested for ANP competition using a Fluorescence Resonance Energy Transfer (FRET)-based assay in which the NPR1-specific antibodies competed with ANP for binding to NPR1. In this FRET based assay (see FIG. 3), Eu-labeled Streptavidin (for measurement of IgGs) or Eu-labeled anti-hFc antibody (for measurement of FabCys) was used as an energy donor, while Cy5-labeled ANP was used as an acceptor (for all measurements). The resulting fluorescent signal was decreased by ANP-competitive antibodies. The assay was performed as follows: antibodies were mixed with NPR1 and incubated for 5 minutes at room temperature. After addition of the Eu-labeled donor and incubation for 30 minutes at room temperature, the Cy5-ANP solution was added. After a further 60-minute incubation, readout was performed using a TECAN Infinite M1000 Pro using an excitation wavelength of 317 nm and an emission wavelength of 665 nm. Percentage of ANP competition was calculated according to the following formulae: […]

ELISA binding at 1 µM IgG [1]: 50 | ELISA binding at 1 µM IgG [2]: 54 | ELISA binding at 1 µM IgG [3]: 76 | cGMP conc [nM] at 1 µM IgG, +0.075 nM ANP [4]: 14 nM | cGMP conc [nM] at 1 µM IgG, without ANP [4]: 5 nM | flow cytometry S/BG at 1 µM IgG [5]: 21 S/BG | flow cytometry S/BG at 1 µM IgG [6]: 35 S/BG | EC50 (read off the curve) [7]: ~0.2 nM
B1: YY01 (IgG format) (antibody, V domains shown)
VH: EVQLVESGGGLVQPGGSLRLSCAASGFTFSSYWISWVRQAPGKGLEWVANIKQSGSETYYVESVKGRFTISRDNAKNSLYLQMNSLRAEDTAVYYCARSLRRRSTEHAGFDVWGQGTLVTVSS
VL: DIQMTQSPSSLSASVGDRVTITCRASQGISNYLAWYQQKPGKVPKLLIYAASTLQSGVPSRFSGSGSGTDFTLTISSLQPEDVATYYCQQADKFPYTFGQGTKVEIKR
notes: also called YY01_LALA

EC50 (read off the curve) [8]: ~2 nM | EC50 (read off the curve) [9]: ~0.3 nM
B2: XX07 (IgG format) (antibody, V domains shown)
VH: QVQLLESGGGLVQPGGSLRLSCAASGFTFSSYWMNWVRQAPGKGLEWVSAISSDGSYTYYADSVKGRFTISRDNSKNTLYLQMNSLRAEDTAVYYCARDRYSMIYSYGAGAFDYWGQGTLVTVSS
VL: DIQMTQSPSSLSASVGDRVTITCRASQGISSYLAWYQQKPGKAPKLLIYTASTLQSGVPSRFSGSGSGTDFTLTISSLQPEDFATYYCQQIWTVPRTFGQGTKVEIK

EC50 (read off the curve) [10]: ~0.8 nM | EC50 (read off the curve) [11]: ~0.4 nM
B3: XX12 (IgG format) (antibody, V domains shown)
VH: QVQLLESGGGLVQPGGSLRLSCAASGFTFSSYWMNWVRQAPGKGLEWVSAISSDGSYTYYADSVKGRFTISRDNSKNTLYLQMNSLRAEDTAVYYCARDRYSMIYSYGAGAFDYWGQGTLVTVSS
VL: DIQMTQSPSSLSASVGDRVTITCRASQGISSYLAWYQQKPGKAPKLLIYTASTLQSGVPSRFSGSGSGTDFTLTISSLQPEDFATYYCQQIWMAPRTFGQGTKVEIK

— US20240052042A1 (Novartis, published 2024)
